Key:
HeLa Kyoto [1] = test: solubility in G1/S (NP-40 vs SDS abundance) (log2 ratio); higher = more soluble; settings: cell cycle stage: G1/S
HeLa Kyoto [2] = test: melting temperature (median over replicates), in situ; higher = more thermally stable
HeLa Kyoto [3] = test: solubility change mitosis vs G1/S (difference of NP-40 vs SDS log2 ratios) (log2 ratio difference); higher = more soluble in mitosis
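For melting temperature (median over replicates), in situ in this document: HeLa Kyoto cells synchronized by double thymidine or nocodazole block, proteins quantified by TMT10plex mass spectrometry, three independent biological replicates.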
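For solubility change mitosis vs G1/S (difference of NP-40 vs SDS log2 ratios) in this document: synchronized HeLa Kyoto cells (double thymidine block for G1/S, nocodazole release for mitosis), protein amounts in NP-40 versus SDS lysates quantified by mass spectrometry, three biological replicates.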
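For solubility in G1/S (NP-40 vs SDS abundance) in this document: HeLa Kyoto cells arrested at G1/S by double thymidine block, proteins quantified by TMT10plex mass spectrometry in mild NP-40 versus SDS extracts, three biological replicates.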

Sequence of PCIF1 (chain, as listed by the source): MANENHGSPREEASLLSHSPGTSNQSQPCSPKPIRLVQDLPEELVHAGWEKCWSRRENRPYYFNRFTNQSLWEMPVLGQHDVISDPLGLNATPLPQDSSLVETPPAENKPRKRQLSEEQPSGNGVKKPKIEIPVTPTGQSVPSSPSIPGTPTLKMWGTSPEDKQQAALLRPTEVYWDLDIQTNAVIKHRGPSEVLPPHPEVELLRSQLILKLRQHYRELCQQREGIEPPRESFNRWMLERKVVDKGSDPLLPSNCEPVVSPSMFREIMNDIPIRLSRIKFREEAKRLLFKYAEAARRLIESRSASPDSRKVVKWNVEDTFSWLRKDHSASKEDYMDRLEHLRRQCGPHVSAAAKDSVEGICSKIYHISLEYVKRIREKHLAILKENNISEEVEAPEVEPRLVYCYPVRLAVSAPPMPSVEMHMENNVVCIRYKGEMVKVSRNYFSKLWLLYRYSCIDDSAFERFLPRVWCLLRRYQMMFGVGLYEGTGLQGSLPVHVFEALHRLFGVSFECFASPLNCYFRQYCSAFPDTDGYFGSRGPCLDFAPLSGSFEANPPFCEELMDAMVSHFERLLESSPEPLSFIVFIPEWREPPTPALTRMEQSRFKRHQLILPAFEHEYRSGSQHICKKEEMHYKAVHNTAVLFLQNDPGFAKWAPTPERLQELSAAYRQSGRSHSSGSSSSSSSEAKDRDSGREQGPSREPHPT
Sequence of PCBD2 (chain, as listed by the source): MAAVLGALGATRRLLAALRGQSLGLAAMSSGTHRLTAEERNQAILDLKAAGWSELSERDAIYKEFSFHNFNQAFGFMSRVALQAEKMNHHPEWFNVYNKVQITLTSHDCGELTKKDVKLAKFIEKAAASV
Sequence of WRN (chain, as listed by the source): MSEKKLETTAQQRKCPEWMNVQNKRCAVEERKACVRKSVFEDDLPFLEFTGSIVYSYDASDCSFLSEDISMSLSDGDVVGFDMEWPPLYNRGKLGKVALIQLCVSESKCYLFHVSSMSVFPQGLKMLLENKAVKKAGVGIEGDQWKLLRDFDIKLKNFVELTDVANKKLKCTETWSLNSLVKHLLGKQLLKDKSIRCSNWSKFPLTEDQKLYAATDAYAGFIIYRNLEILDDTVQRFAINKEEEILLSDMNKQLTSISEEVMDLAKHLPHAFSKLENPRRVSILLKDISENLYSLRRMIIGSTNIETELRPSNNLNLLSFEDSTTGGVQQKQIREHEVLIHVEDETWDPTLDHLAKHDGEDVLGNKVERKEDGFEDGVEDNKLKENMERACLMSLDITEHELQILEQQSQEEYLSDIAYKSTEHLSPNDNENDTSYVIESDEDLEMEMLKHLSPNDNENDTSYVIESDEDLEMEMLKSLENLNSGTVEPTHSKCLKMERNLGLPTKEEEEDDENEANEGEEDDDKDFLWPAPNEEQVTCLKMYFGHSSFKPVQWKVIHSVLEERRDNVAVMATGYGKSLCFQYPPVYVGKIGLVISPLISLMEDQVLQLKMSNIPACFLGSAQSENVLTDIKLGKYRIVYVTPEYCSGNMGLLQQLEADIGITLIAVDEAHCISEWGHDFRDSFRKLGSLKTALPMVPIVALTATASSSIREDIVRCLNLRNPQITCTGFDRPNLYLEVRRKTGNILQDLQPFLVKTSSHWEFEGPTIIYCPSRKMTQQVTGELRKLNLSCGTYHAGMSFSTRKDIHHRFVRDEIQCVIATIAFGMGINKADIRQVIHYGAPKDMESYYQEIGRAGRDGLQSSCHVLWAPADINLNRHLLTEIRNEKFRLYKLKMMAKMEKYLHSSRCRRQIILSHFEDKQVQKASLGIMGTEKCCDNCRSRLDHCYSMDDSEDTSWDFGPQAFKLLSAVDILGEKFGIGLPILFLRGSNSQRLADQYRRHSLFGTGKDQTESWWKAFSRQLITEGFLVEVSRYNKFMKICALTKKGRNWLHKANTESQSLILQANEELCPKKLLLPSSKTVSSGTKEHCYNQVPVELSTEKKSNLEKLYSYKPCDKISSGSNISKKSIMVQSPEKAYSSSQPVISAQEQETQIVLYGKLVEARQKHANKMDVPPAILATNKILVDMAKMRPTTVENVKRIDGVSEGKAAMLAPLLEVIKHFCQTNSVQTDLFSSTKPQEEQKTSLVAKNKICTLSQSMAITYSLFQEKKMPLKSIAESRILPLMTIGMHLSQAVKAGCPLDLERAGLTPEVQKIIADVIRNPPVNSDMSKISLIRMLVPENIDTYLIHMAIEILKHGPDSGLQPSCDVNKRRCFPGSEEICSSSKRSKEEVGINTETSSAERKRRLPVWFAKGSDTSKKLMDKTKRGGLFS
Sequence of NEK6 (chain, as listed by the source): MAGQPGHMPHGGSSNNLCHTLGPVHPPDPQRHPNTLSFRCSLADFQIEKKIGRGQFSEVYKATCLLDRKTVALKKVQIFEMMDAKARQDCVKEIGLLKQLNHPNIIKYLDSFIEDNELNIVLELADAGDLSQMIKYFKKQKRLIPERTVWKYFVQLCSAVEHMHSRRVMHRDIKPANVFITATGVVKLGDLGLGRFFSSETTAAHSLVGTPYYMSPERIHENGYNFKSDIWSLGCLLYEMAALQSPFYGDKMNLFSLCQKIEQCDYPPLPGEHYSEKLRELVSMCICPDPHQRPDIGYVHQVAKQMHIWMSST
Sequence of WWC1 (chain, as listed by the source): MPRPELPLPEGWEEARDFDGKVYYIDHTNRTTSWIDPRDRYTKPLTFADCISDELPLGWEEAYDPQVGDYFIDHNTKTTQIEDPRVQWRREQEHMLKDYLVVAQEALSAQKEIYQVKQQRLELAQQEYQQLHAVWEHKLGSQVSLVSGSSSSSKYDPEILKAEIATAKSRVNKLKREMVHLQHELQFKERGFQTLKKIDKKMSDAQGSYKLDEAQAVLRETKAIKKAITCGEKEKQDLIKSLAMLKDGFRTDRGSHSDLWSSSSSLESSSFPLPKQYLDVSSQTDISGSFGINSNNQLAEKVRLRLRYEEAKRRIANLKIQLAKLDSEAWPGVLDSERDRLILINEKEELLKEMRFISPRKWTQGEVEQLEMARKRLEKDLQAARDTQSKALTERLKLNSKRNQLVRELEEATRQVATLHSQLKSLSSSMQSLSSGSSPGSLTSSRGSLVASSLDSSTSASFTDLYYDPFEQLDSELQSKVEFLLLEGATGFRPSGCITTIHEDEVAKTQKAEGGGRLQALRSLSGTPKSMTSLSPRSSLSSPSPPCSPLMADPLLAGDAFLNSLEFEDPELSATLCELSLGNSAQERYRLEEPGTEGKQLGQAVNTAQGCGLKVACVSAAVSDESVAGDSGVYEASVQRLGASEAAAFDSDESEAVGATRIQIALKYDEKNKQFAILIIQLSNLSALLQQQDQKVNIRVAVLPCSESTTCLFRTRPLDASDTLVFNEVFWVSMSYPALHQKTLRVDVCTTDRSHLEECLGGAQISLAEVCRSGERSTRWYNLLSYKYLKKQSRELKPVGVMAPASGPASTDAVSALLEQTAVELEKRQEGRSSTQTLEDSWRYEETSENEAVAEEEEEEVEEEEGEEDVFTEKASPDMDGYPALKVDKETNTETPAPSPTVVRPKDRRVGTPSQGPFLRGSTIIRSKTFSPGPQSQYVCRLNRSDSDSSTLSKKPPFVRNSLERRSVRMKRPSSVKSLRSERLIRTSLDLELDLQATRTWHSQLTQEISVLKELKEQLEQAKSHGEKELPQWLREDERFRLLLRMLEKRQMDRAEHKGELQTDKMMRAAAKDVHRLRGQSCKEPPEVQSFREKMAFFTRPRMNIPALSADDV

Substance	solubility in G1/S (log2) (HeLa Kyoto [1])	melting temperature (HeLa Kyoto [2]; cell cycle stage: G1/S) [°C]	melting temperature (HeLa Kyoto [2]; cell cycle stage: mitosis) [°C]	solubility change mitosis (log2) (HeLa Kyoto [3])
ASAP2	0.122	50.7	51.4	-0.37
ATG2B	-0.312		53.4	0.00813
CEP250	-0.0371	51	50.8	0.272
KIF13B	-0.0369	50.2	50.3	-0.193
MAAAAPGNGRASAPRLLLLFLVPLLWAPAAVRAGPDEDLSHRNKEPPAPAQQLQPQPVAVQGPEPARVEKIFTPAAPVHTNKEDPATQTNLGFIHAFVAAISVIIVSELGDKTFFIAAIMAMRYNRLTVLAGAMLALGLMTCLSVLFGYATTVIPRVYTYYVSTVLFAIFGIRMLREGLKMSPDEGQEELEEVQAELKKKDEEFQRTKLLNGPGDVETGTSITVPQKKWLHFISPIFVQALTLTFLAEWGDRSQLTTIVLAAREDPYGVAVGGTVGHCLCTGLAVIGGRMIAQKISVRTVTIIGGIVFLAFAFSALFISPDSGF [TMEM165]	0.0487	60.8	56.9	-0.178
MTSFEDADTEETVTCLQMTVYHPGQLQCGIFQSISFNREKLPSSEVVKFGRNSNICHYTFQDKQVSRVQFSLQLFKKFNSSVLSFEIKNMSKKTNLIVDSRELGYLNKMDLPYRCMVRFGEYQFLMEKEDGESLEFFETQFILSPRSLLQENNWPPHRPIPEYGTYSLCSSQSSSPTEMDENES [TIFA]	0.0872			-0.224
MTSVTRSEIIDEKGPVMSKTHDHQLESSLSPVEVFAKTSASLEMNQGVSEERIHLGSSPKKGGNCDLSHQERLQSKSLHLSPQEQSASYQDRRQSWRRASMKETNRRKSLHPIHQGITELSRSISVDLAESKRLGCLLLSSFQFSIQKLEPFLRDTKGFSLESFRAKASSLSEELKHFADGLETDGTLQKCFEDSNGKASDFSLEASVAEMKEYITKFSLERQTWDQLLLHYQQEAKEILSRGSTEAKITEVKVEPMTYLGSSQNEVLNTKPDYQKILQNQSKVFDCMELVMDELQGSVKQLQAFMDESTQCFQKVSVQLGKRSMQQLDPSPARKLLKLQLQNPPAIHGSGSGSCQ [DSN1]	0.0805			-0.12
MTTKNLETKVTVTSSPIRGAGDGMETEEPPKSVEVTSGVQSRKHHSLQSPWKKAVPSESPGVLQLGKMLTEKAMEVKAVRILVPKAAITHDIPNKNTKVKSLGHHKGEFLGQSEGVIEPNKELSEVKNVLEKLKNSERRLLQDKEGLSNQLRVQTEVNRELKKLLVASVGDDLQYHFERLAREKNQLILENEALGRNTAQLSEQLERMSIQCDVWRSKFLASRVMADELTNSRAALQRQNRDAHGAIQDLLSEREQFRQEMIATQKLLEELLVSLQWGREQTYSPSVQPHSTAELALTNHKLAKAVNSHLLGNVGINNQKKIPSTVEFCSTPAEKMAETVLRILDPVTCKESSPDNPFFESSPTTLLATKKNIGRFHPYTRYENITFNCCNHCRGELIAL [BLZF1]	0.15			0.0573
MTTLTHRARRTEISKNSEKKMESEEDSNWEKSPDNEDSGDSKDIRLTLMEEVLLLGLKDKEGYTSFWNDCISSGLRGGILIELAMRGRIYLEPPTMRKKRLLDRKVLLKSDSPTGDVLLDETLKHIKATEPTETVQTWIELLTGETWNPFKLQYQLRNVRERIAKNLVEKGILTTEKQNFLLFDMTTHPVTNTTEKQRLVKKLQDSVLERWVNDPQRMDKRTLALLVLAHSSDVLENVFSSLTDDKYDVAMNRAKDLVELDPEVEGTKPSATEMIWAVLAAFNKS [GOLPH3L]	0.202			0.0306
MVAWRSAFLVCLAFSLATLVQRGSGDFDDFNLEDAVKETSSVKQPWDHTTTTTTNRPGTTRAPAKPPGSGLDLADALDDQDDGRRKPGIGGRERWNHVTTTTKRPVTTRAPANTLGNDFDLADALDDRNDRDDGRRKPIAGGGGFSDKDLEDIVGGGEYKPDKGKGDGRYGSNDDPGSGMVAEPGTIAGVASALAMALIGAVSSYISYQQKKFCFSIQQGLNADYVKGENLEAVVCEEPQVKYSTLHTQSAEPPPPPEPARI [CD99L2]	-0.143			-0.147
MVLLHVKRGDESQFLLQAPGSTELEELTVQVARVYNGRLKVQRLCSEMEELAEHGIFLPPNMQGLTDDQIEELKLKDEWGEKCVPSGGAVFKKDDIGRRNGQAPNEKMKQVLKKTIEEAKAIISKKQVEAGVCVTMEMVKDALDQLRGAVMIVYPMGLPPYDPIRMEFENKEDLSGTQAGLNVIKEAEAQLWWAAKELRRTKKLSDYVGKNEKTKIIAKIQQRGQGAPAREPIISSEEQKQLMLYYHRRQEELKRLEENDDDAYLNSPWADNTALKRHFHGVKDIKWRPR [C21ORF59]	0.335			0.0264
MVMAALSLVAACWGRAAADESVQLPAAPGSSVRARETMVSVTMATSEWIQFFKEAGIPPGPAVNYAVMFVDNRIQKSMLLDLNKEIMNELGVTVVGDIIAILKHAKVVHRQDMCKAATESVPCSPSPLAGEIRRGTSAASRMITNSLNHDSPPSTPPRRPDTSTSKISVTVSNKMAAKSAKATAALARREEESLAVPAKRRRVTAEMEGKYVINMPKGTTPRTRKILEQQQAAKGLHRTSVFDRLGAETKADTTTGSKPTGVFSRLGATPETDEDLAWDSDNDSSSSVLQYAGVLKKLGRGPAKASPQPALTVKAKATSSATTAAAPTLRRLALSSRSGLERKPESLSKVSIIKRLGAAALVPEAQDSQVTSTKSKSSAEVKVTIKRTLVGPRGSSSSEGLGAQMDHAGTVSVFKRLGRRTF [C19ORF47]	-0.824			1.04
MVRTKADSVPGTYRKVVAARAPRKVLGSSTSATNSTSVSSRKAENKYAGGNPVCVRPTPKWQKGIGEFFRLSPKDSEKENQIPEEAGSSGLGKAKRKACPLQPDHTNDEKE [KIAA0101]	-0.0358			0.256
MVVLRSSLELHNHSAASATGSLDLSSDFLSLEHIGRRRLRSAGAAQKKPAATTAKAGDGSSVKEVETYHRTRALRSLRKDAQNSSDSSFEKNVEITEQLANGRHFTRQLARQQADKKKEEHREDKVIPVTRSLRARNIVQSTEHLHEDNGDVEVRRSCRIRSRYSGVNQSMLFDKLITNTAEAVLQKMDDMKKMRRQRMRELEDLGVFNETEESNLNMYTRGKQKDIQRTDEETTDNQEGSVESSEEGEDQEHEDDGEDEDDEDDDDDDDDDDDDDDEDDEDEEDGEEENQKRYYLRQRKATVYYQAPLEKPRHQRKPNIFYSGPASPARPRYRLSSAGPRSPYCKRMNRRRHAIHSSDSTSSSSSEDEQHFERRRKRSRNRAINRCLPLNFRKDELKGIYKDRMKIGASLADVDPMQLDSSVRFDSVGGLSNHIAALKEMVVFPLLYPEVFEKFKIQPPRGCLFYGPPGTGKTLVARALANECSQGDKRVAFFMRKGADCLSKWVGESERQLRLLFDQAYQMRPSIIFFDEIDGLAPVRSSRQDQIHSSIVSTLLALMDGLDSRGEIVVIGATNRLDSIDPALRRPGRFDREFLFSLPDKEARKEILKIHTRDWNPKPLDTFLEELAENCVGYCGADIKSICAEAALCALRRRYPQIYTTSEKLQLDLSSINISAKDFEVAMQKMIPASQRAVTSPGQALSTVVKPLLQNTVDKILEALQRVFPHAEFRTNKTLDSDISCPLLESDLAYSDDDVPSVYENGLSQKSSHKAKDNFNFLHLNRNACYQPMSFRPRILIVGEPGFGQGSHLAPAVIHALEKFTVYTLDIPVLFGVSTTSPEETCAQVIREAKRTAPSIVYVPHIHVWWEIVGPTLKATFTTLLQNIPSFAPVLLLATSDKPHSALPEEVQELFIRDYGEIFNVQLPDKEERTKFFEDLILKQAAKPPISKKKAVLQALEVLPVAPPPEPRSLTAEEVKRLEEQEEDTFRELRIFLRNVTHRLAIDKRFRVFTKPVDPDEVPDYVTVIKQPMDLSSVISKIDLHKYLTVKDYLRDIDLICSNALEYNPDRDPGDRLIRHRACALRDTAYAIIKEELDEDFEQLCEEIQESRKKRGCSSSKYAPSYYHVMPKQNSTLVGDKRSDPEQNEKLKTPSTPVACSTPAQLKRKIRKKSNWYLGTIKKRRKISQAKDDSQNAIDHKIESDTEETQDTSVDHNETGNTGESSVEENEKQQNASESKLELRNNSNTCNIENELEDSRKTTACTELRDKIACNGDASSSQIIHISDENEGKEMCVLRMTRARRSQVEQQQLITVEKALAILSQPTPSLVVDHERLKNLLKTVVKKSQNYNIFQLENLYAVISQCIYRHRKDHDKTSLIQKMEQEVENFSCSR [ATAD2]	-3.07			2.36
MVYISNGQVLDSRSQSPWRLSLITDFFWGIAEFVVLFFKTLLQQDVKKRRSYGNSSDSRYDDGRGPPGNPPRRMGRINHLRGPSPPPMAGGUGR [SELK]	0.000519			0.31
MWCLHCNSERTQSLLELELDSGVEGEAPSSETGTSLDSPSAYPQGPLVPGSSLSPDHYEHTSVGAYGLYSGPPGQQQRTRRPKLQHSTSILRKQAEEEAIKRSRSLSESYELSSDLQDKQVEMLERKYGGRLVTRHAARTIQTAFRQYQMNKNFERLRSSMSENRMSRRIVLSNMRMQFSFEGPEKVHSSYFEGKQVSVTNDGSQLGALVSPECGDLSEPTTLKSPAPSSDFADAITELEDAFSRQVKSLAESIDDALNCRSLHTEEAPALDAARARDTEPQTALHGMDHRKLDEMTASYSDVTLYIDEEELSPPLPLSQAGDRPSSTESDLRLRAGGAAPDYWALAHKEDKADTDTSCRSTPSLERQEQRLRVEHLPLLTIEPPSDSSVDLSDRSERGSLKRQSAYERSLGGQQGSPKHGPHSGAPKSLPREEPELRPRPPRPLDSHLAINGSANRQSKSESDYSDGDNDSINSTSNSNDTINCSSESSSRDSLREQTLSKQTYHKEARNSWDSPAFSNDVIRKRHYRIGLNLFNKKPEKGVQYLIERGFVPDTPVGVAHFLLQRKGLSRQMIGEFLGNRQKQFNRDVLDCVVDEMDFSTMELDEALRKFQAHIRVQGEAQKVERLIEAFSQRYCICNPGVVRQFRNPDTIFILAFAIILLNTDMYSPNVKPERKMKLEDFIKNLRGVDDGEDIPREMLMGIYERIRKRELKTNEDHVSQVQKVEKLIVGKKPIGSLHPGLGCVLSLPHRRLVCYCRLFEVPDPNKPQKLGLHQREIFLFNDLLVVTKIFQKKKNSVTYSFRQSFSLYGMQVLLFENQYYPNGIRLTSSVPGADIKVLINFNAPNPQDRKKFTDDLRESIAEVQEMEKHRIESELEKQKGVVRPSMSQCSSLKKESGNGTLSRACLDDSYASGEGLKRSALSSSLRDLSEAGKRGRRSSAGSLESNVEFQPFEPLQPSVLCS [IQSEC1]	-0.0654			-0.0422
NEK6	0.1			-0.09
NISCH	-0.0187			0.0432
PCBD2	-0.0388			0.0587
PCIF1	0.0856			-0.0368
PRR12	0.163			0.0459
RAI1	-0.769			0.596
SOGA1	-0.0256			0.0556
SYNE1	-0.526			0.198
TAF1	-0.408			0.0526
WDR81	-0.0834			-0.333
WRN	-0.339			0.124
WWC1	-0.00567			-0.4
WWP1	-0.159			0.0121
